Paper PMC5716544

Biological target: functional streptavidin subunit with N-terminal cysteine and His-tag (Streptomyces avidinii) (UniProt P22629)
Assay: refolding of mixed subunits, purification via the His-tag of one subunit, SDS-PAGE of heated and unheated samples; solubilized inclusion bodies mixed at a 1:10 ratio before refolding; tetramer purified via the His-tag of the cysteine-bearing subunit; gel of samples heated 5 min to 95°C (monomers) and of unheated samples (tetramers), room temperature

stoichiometry N: 3
Substance: functional SA subunit devoid of cysteine and His-tag (domain or fragment)
